Experimental findings from patent US20090158455A1, “COMPOSITIONS AND METHODS FOR MODULATING LYSINE PRODUCTION” (priority 2005, published 2009) are described below.

What is called Km is the concentration of substrate that gives half-maximal velocity.

The test system of series [1] is N[C@@H](CCC[C@H](N)C(=O)O)C(=O)O. Put plainly: purified protein, by the assay type. The settings on record: other: reverse assay.
Series [2] has as its system O=C(O)C1=N[C@H](C(=O)O)CCC1. Nature of the series: purified protein, by the assay type. The settings on record: other: forward assay.
Series [3] has as its system N[C@@H](CCC(=O)O)C(=O)O. Put plainly: purified protein, by the assay type. The following applies: other: forward assay.
The next series has as its system O=C(O)CCC(=O)C(=O)O. Put plainly: purified protein, by the assay type. The following applies: other: reverse assay.
Series [4] concerns O=C(O)C1=N[C@H](C(=O)O)CCC1. Put plainly: Quantitative forward and reverse assays of purified LL-DAP transaminases (Example III). The following applies: other: forward assay. Type of series: biochemical, Desulfitobacterium hafniense DCB-2.
Description: (§1) This plasmid was transformed into E. coli BL21-CodonPlus®-RIPL for expression and purification of the recombinant protein.
(§2) For protein expression the E. coli strains were grown on LB at 37° C. to an OD600 nm of 0.5 and protein expression was then induced with 1 mM IPTG for 4 hr at 25° C. Cells were lysed by sonication in a solution of 50 mM sodium phosphate and 300 mM NaCl (pH 8.0). Metabolites in the extract were removed by buffer exchange using an Amicon Ultra 30,000 MWCO ultrafilter and sodium phosphate/NaCl buffer, and the concentrated soluble protein sample was used for measurement of enzyme activity as an initial assessment of enzyme function. When the recombinant protein was to be purified a larger cell culture was grown and lysed as described above, but the buffer exchange step was not carried out. […] The pure protein was then concentrated in an Amicon Ultra 30,000 MWCO ultrafilter, replacing the elution buffer with 100 mM HepesKOH, pH 7.6.
For series [5], the system named is N[C@@H](CCC(=O)O)C(=O)O. The description is as above. It is filed as biochemical, Desulfitobacterium hafniense DCB-2. The settings on record: other: forward assay.
Description: as §1, §2

Regarding “Chlamydia trachomatis LL-DAP aminotransferase CT390 (ct390), His-Tag fusion, SEQ ID NO: 9 (Chlamydia trachomatis D/UW-3/CX)”, the Michaelis constant (Km) in series [1] (pH 7.5, 30° C., apparent Km) was found to be 20 µM; in series [2] (pH 7.5, 30° C., apparent Km) it was 200 µM; in the series on N[C@@H](CCC(=O)O)C(=O)O [3] (pH 7.5, 30° C., apparent Km), 1000 µM; with O=C(O)CCC(=O)C(=O)O (pH 7.5, 30° C., apparent Km, pH 7.5, 30.0 °C) it was 650 µM.

“Desulfitobacterium hafniense LL-DAP transaminase Dhaf_3890 (Desulfitobacterium hafniense DCB-2)”: the Km was determined as 70 µM in series [4], 800 µM with N[C@@H](CCC(=O)O)C(=O)O [5], 41 µM in series [1] and 300 µM in the series on O=C(O)CCC(=O)C(=O)O.

Take “Methanothermobacter thermautotrophicus LL-DAP transaminase MTH52 (Methanothermobacter thermautotrophicus str. Delta H)”: the Km was 30 µM in series [1], 75 µM in series [2] and 3000 µM in the series on N[C@@H](CCC(=O)O)C(=O)O [3].

Regarding “Synechocystis sp. PCC 6803 LL-DAP transaminase sll0480 (Synechocystis sp. PCC 6803 substr. Kazusa)”, the Km in series [1] came to 17 µM; in series [2] it was 13 µM; with N[C@@H](CCC(=O)O)C(=O)O [3], 1500 µM; in the series with O=C(O)CCC(=O)C(=O)O it was 310 µM.
